From US20160193316A1 (priority 1994, published 2016)

What was measured:
DRB1*0405 (DR4w15) = target: T1, DRB1*0405 (DR4w15) (Homo sapiens, UniProt P01903+P01911, A100R/A169T/D86S/F76Y/I96L/K127E/L162R/M171V/N62H/P40V/Q125Y/R42H/S133A/S149N/S66Y/V115G/V209L/W38E); test: HLA class II peptide binding assay; details: for DR4w15 binding data: Table XIXb; for DR4w15 binding information: unit not given
T1 construct: endogenous in cells; host or cells: KT3

DRB1*0401 (DR4w4) = target: T2, DRB1*0401 (DR4w4) (Homo sapiens, UniProt P01903+P01911, A100K/A169T/F76Y/I96L/K127E/L162R/M171V/N62H/P40V/Q125Y/R42H/S133A/S149N/S66Y/V115G/V209L/W38E); test: HLA class II peptide binding assay; details: for DR4w4 binding data: Table XIXb; for DR4w4 binding information: unit not given
T2 construct: endogenous in cells; host or cells: Preiss

DRB4*0101 (DRw53) = target: T3, DRB4*0101 (DRw53) (Homo sapiens, UniProt P01903+P13762, G164S); test: HLA class II peptide binding assay (pH 5.0); details: for DRw53 binding data: Table XIXb; for DRw53 binding information: DR3a motif peptides, unit not given, exemplary 15-mer containing the core sequence
T3 construct: expressed in transfected cells; host or cells: L257.6 (fibroblasts)

DRB1*0802 (DR8w2) = target: T4, DRB1*0802 (DR8w2) (Homo sapiens, UniProt P01903+P01911, A100R/A103L/A169T/F76Y/H45Y/I96F/K41T/L162R/M171V/P40S/Q125H/Q178H/Q39Y/Q99D/R218S/R42G/S66Y/V115G/W38E); test: biochemical; format: binding
T4 construct: endogenous in cells; host or cells: OLL

DRB1*1201 (DR5w12) = target: T5, DRB1*1201 (DR5w12) (Homo sapiens, UniProt P01903+P01911, A100R/A169T/D57E/D86V/F55L/H45Y/K41T/L162R/M171V/P40S/Q125H/Q178H/Q39Y/Q99D/R42G/S66L/T262R/V114A/V67L/W38E/Y59H/Y61H/Y89S); test: HLA class II peptide binding assay; details: for DR5w12 binding data: Table XIXb; for DR5w12 binding information: unit not given
T5 construct: endogenous in cells; host or cells: Herluf

DRB5*0101 (DR2w2β2) = target: T6, DRB5*0101 (DR2w2β2) (Homo sapiens, UniProt P01903+Q30154); format: binding
T6 construct: expressed in transfected cells; host or cells: L416.3 (fibroblasts) or GM3107

DRB1*0101 (DR1) = target: T7, DRB1*0101 (DR1) (Homo sapiens, UniProt P01903+P01911, A100R/D57E/F55L/F60I/F76Y/I96L/L162R/M171V/P40L/Q125E/R42F/V115G/Y59C); test: HLA class II peptide binding assay; details: for DR1 binding data: Table XIXb, Malaria Super Motif Peptides With Binding Data; for DR1 binding information: unit not given
T7 construct: endogenous in cells; host or cells: LG2

DRB1*1101 (DR5w11) = target: T8, DRB1*1101 (DR5w11) (Homo sapiens, UniProt P01903+P01911, A100R/A169T/A87E/I96F/K41T/L162R/M171V/P40S/Q125H/Q178H/Q39Y/Q99D/R42S/S66Y/T262R/V115G/W38E); test: biochemical; format: binding
T8 construct: endogenous in cells; host or cells: Sweig

DRB1*0701 (DR7) = target: T9, DRB1*0701 (DR7) (Homo sapiens, UniProt P01903+P01911, A100R/A102G/A103Q/D57E/D86V/E43K/F76Y/K127E/L162R/M171V/P40G/Q125H/Q99D/R33Q/R42Y/R54Q/S133A/S66F/T210M/V115G/Y107V/Y59L/Y89S); test: biochemical; format: binding
T9 construct: endogenous in cells; host or cells: Pitout

DRB1*0301 (DR3) = target: T10, DRB1*0301 (DR3) (Homo sapiens, UniProt P01903+P01911, A100K/A102G/A103R/A169T/F55Y/I96L/K41T/L162R/M171V/P40S/Q125H/Q178H/Q39Y/R42S/S66N/T106N/T262R/W38E/Y61H); test: HLA class II peptide binding assay (pH 4.5); details: unit not given
T10 construct: endogenous in cells; host or cells: MAT

HLA-A*1101 = HLA-A*1101 (Homo sapiens, UniProt P04439, A114D/D185E/E176A/F33Y/L180Q/S129P/T187R); test: HLA class I peptide binding assay; details: Table XVII
HLA-A*0301 = target: T11, HLA-A*0301 (Homo sapiens, UniProt P04439); test: HLA class I peptide binding assay; details: for A*0301 (binding information): Malaria A3 motif peptides, Table XVI
T11 construct: endogenous in cells; host or cells: GM3107

[1] = DR3a motif peptides, exemplary 15-mer containing the core sequence
[2] = Malaria A11 motif peptides, HLA-A*1101 binding value, unit not given
[3] = malaria A11 motif peptides, binding value unit not given
[4] = binding value to HLA-A*0301, unit not given
[5] = Malaria A11 motif peptides, binding value for HLA-A*1101, unit not given

T8 sequence (P01903 26-254, other chains not shown): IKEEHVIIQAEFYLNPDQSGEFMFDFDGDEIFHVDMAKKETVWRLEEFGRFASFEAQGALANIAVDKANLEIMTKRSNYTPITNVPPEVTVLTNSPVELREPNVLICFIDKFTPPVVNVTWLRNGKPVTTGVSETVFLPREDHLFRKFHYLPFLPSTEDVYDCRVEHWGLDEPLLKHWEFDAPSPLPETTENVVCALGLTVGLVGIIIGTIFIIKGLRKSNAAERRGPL
T7 sequence (P01903 26-254 partner, other chains not shown): as the sequence (P01903 26-254, other chains not shown) above
T2 sequence (P01903 26-254 partner, other chains not shown): as the sequence (P01903 26-254, other chains not shown) above

Sequence: WDEWSPCSV
- DR4w15 binding data (DRB1*0405 (DR4w15)): -0.0014
- DR4w4 binding data (DRB1*0401 (DR4w4)): -0.0007
- DRw53 binding data (DRB4*0101 (DRw53)): -0.0006
- DR8w2 binding data (DRB1*0802 (DR8w2)): -0.0003
- DR5w12 binding data (DRB1*1201 (DR5w12)): 0.0001
- DR2w2β2 binding data (DRB5*0101 (DR2w2β2)): -0.0006
- DR1 binding data (DRB1*0101 (DR1)): 0.0001
- DR5w11 binding data (DRB1*1101 (DR5w11)): -0.0002
- DR7 binding data (DRB1*0701 (DR7)): -0.0003

Sequence: LTDGIPDSI
- DR4w15 binding data (DRB1*0405 (DR4w15)): -0.0014
- DR4w4 binding data (DRB1*0401 (DR4w4)): 0.1200
- DRw53 binding data (DRB4*0101 (DRw53)): 0.0114
- DR8w2 binding data (DRB1*0802 (DR8w2)): -0.0003
- DR5w12 binding data (DRB1*1201 (DR5w12)): 0.0001
- DR2w2β2 binding data (DRB5*0101 (DR2w2β2)): -0.0006
- DR1 binding data (DRB1*0101 (DR1)): 0.0001
- DR5w11 binding data (DRB1*1101 (DR5w11)): -0.0004
- DR7 binding data (DRB1*0701 (DR7)): -0.0003

Sequence: VEVEKTASC
- DR4w15 binding information (DRB1*0405 (DR4w15); [1]): -0.0014
- DR3 binding information (DRB1*0301 (DR3); [1]): -0.0041
- DR4w4 binding information (DRB1*0401 (DR4w4); [1]): 0.0030
- DRw53 binding information (DRB4*0101 (DRw53)): 0.0022
- DR8w2 binding information (DRB1*0802 (DR8w2)): 0.0006
- DR5w12 binding information (DRB1*1201 (DR5w12); [1]): 0.0001
- DR2w2β2 binding information (DRB5*0101 (DR2w2β2)): -0.0006
- DR1 binding information (DRB1*0101 (DR1); [1]): 0.0001
- DR5w11 binding information (DRB1*1101 (DR5w11)): 0.0003
- DR7 binding information (DRB1*0701 (DR7)): 0.0073

Sequence: DGNNEDNEX
- A*1101 binding information (HLA-A*1101; [2]): 0.0002

Sequence: CSVTCGKGTR
- A*1101 binding information (HLA-A*1101; [3]): 0.0002
- A*0301 (binding information) (HLA-A*0301; [4]): 0.0002
- A*301 (binding data) (HLA-A*0301; Malaria A03 supermotif peptides, binding value, no unit given): 0.0002

Sequence: LALLACAGL
- DR4w15 binding data (DRB1*0405 (DR4w15)): -0.0014
- DR4w4 binding data (DRB1*0401 (DR4w4)): -0.0007
- DRw53 binding data (DRB4*0101 (DRw53)): -0.0005
- DR8w2 binding data (DRB1*0802 (DR8w2)): 0.0003
- DR5w12 binding data (DRB1*1201 (DR5w12)): 0.0051
- DR2w2β2 binding data (DRB5*0101 (DR2w2β2)): 0.0013
- DR1 binding data (DRB1*0101 (DR1)): 0.0018
- DR5w11 binding data (DRB1*1101 (DR5w11)): -0.0002
- DR7 binding data (DRB1*0701 (DR7)): 0.0009

Sequence: VDELSEDTK
- A*1101 binding information (HLA-A*1101; [3]): 0.0002

Sequence: QCEEERCPPK
- A*1101 binding information (HLA-A*1101; [3]): 0.0002
- A*0301 (binding information) (HLA-A*0301; [4]): 0.0004

Sequence: VLYNTEXGRH
- A*1101 binding information (HLA-A*1101; [2]): 0.0002

Sequence: FVEALFQEY
- A*1101 binding information (HLA-A*1101; [2]): 0.0003

Sequence: LERTKASKE
- DRw53 binding data (DRB4*0101 (DRw53)): -0.0005
- DR8w2 binding data (DRB1*0802 (DR8w2)): -0.0003
- DR7 binding data (DRB1*0701 (DR7)): 0.0010

Sequence: KGKKYEKIK
- A*1101 binding information (HLA-A*1101; [5]): 0.0002
- A*0301 (binding information) (HLA-A*0301; HLA-A*0301 binding value, unit not given): 0.0002

Sequence: LNKEGKLIE
- DR4w15 binding information (DRB1*0405 (DR4w15); Malaria DR3b motif peptides): -0.0047
- DR3 binding information (DRB1*0301 (DR3); Malaria DR3b motif peptides): -0.0140
- DR4w4 binding information (DRB1*0401 (DR4w4); Malaria DR3b motif peptides): -0.0017
- DR8w2 binding information (DRB1*0802 (DR8w2)): -0.0007
- DR5w12 binding information (DRB1*1201 (DR5w12); Malaria DR3b motif peptides): -0.0003
- DR2w2β2 binding information (DRB5*0101 (DR2w2β2)): -0.0021
- DR1 binding information (DRB1*0101 (DR1); Malaria DR3b motif peptides): 0.0001
- DR5w11 binding information (DRB1*1101 (DR5w11)): -0.0005
- DR7 binding information (DRB1*0701 (DR7)): -0.0009

Sequence: EMADCTNK
- A*1101 binding information (HLA-A*1101; [2]): 0.0002

Sequence: IFLKENIQNK
- A*1101 binding information (HLA-A*1101; [5]): 0.0002

Sequence: LGGVGLVLY
- DR4w15 binding data (DRB1*0405 (DR4w15)): -0.0009
- DR4w4 binding data (DRB1*0401 (DR4w4)): 0.0032
- A*1101 binding information (HLA-A*1101; [2]): 0.0002
- A*0301 (binding information) (HLA-A*0301; binding value for HLA-A*0301, unit not given): 0.0001
- DR8w2 binding data (DRB1*0802 (DR8w2)): -0.0002
- DR5w12 binding data (DRB1*1201 (DR5w12)): 0.0004
- DR2w2β2 binding data (DRB5*0101 (DR2w2β2)): -0.005
- DR1 binding data (DRB1*0101 (DR1)): 0.4900
- DR5w11 binding data (DRB1*1101 (DR5w11)): -0.0062
- DR7 binding data (DRB1*0701 (DR7)): 0.0007

Sequence: LGVSENTIFLK
- A*1101 binding information (HLA-A*1101; [5]): 0.0063

Sequence: INRENANQL
- DR4w15 binding information (DRB1*0405 (DR4w15); [1]): 0.0010
- DR3 binding information (DRB1*0301 (DR3); [1]): 0.0092
- DR4w4 binding information (DRB1*0401 (DR4w4); [1]): 0.0011
- DRw53 binding information (DRB4*0101 (DRw53)): 0.0096
- DR8w2 binding information (DRB1*0802 (DR8w2)): -0.0003
- DR5w12 binding information (DRB1*1201 (DR5w12); [1]): 0.0001
- DR2w2β2 binding information (DRB5*0101 (DR2w2β2)): 0.0015
- DR1 binding information (DRB1*0101 (DR1); [1]): 0.0770
- DR5w11 binding information (DRB1*1101 (DR5w11)): -0.0004
- DR7 binding information (DRB1*0701 (DR7)): -0.0003

Sequence: VNDFQISKY
- DR4w15 binding data (DRB1*0405 (DR4w15)): -0.0014
- DR4w4 binding data (DRB1*0401 (DR4w4)): -0.0007
- DRw53 binding data (DRB4*0101 (DRw53)): -0.0005
- DR8w2 binding data (DRB1*0802 (DR8w2)): -0.0003
- DR5w12 binding data (DRB1*1201 (DR5w12)): 0.0001
- DR2w2β2 binding data (DRB5*0101 (DR2w2β2)): -0.0005
- DR1 binding data (DRB1*0101 (DR1)): 0.0001
- DR5w11 binding data (DRB1*1101 (DR5w11)): -0.0002
- DR7 binding data (DRB1*0701 (DR7)): -0.0003
